Measured values reported in publication PMC9080154.

Target: Staphylococcal enterotoxin B (SEB) (Staphylococcus aureus, UniProt P01552 28-266)
Sequence (P01552 28-266): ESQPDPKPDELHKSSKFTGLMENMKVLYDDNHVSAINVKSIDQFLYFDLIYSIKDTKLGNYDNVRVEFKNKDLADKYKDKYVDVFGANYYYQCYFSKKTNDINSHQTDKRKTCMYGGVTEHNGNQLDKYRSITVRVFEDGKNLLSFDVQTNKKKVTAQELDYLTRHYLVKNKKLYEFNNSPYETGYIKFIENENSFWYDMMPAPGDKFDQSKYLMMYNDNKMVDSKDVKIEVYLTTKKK

Row | Binder | binding result
1 | SEB aptamer (ssDNA) DNA: GGTATTGAGGGTCGCATCCACTGGTCGTTGTTGTCTGTTGTCTGTTATGTTGTTTCGTGATGGCTCTAACTCTCCTCT | binds
2 | SEB aptamer1 (6-FAM) (ssDNA) DNA: GGTATTGAGGGTCGCATCCACTGGTCGTTGTTGTCTGTTGTCTGTTATGTTGTTTCGTGATGGCTCTAACTCTCCTCT | binds
